B1: ZNF263 (parent)
chain: VPGTQVGQGGKLWDPSVQSCKEGL

Variants of: B1
Experiment: protein stability index of a GFP-peptide fusion (GPS, HEK-293T) (PSI 1-6); higher = more stable
Conditions: c terminus: a fixed tail appended
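Further: lentivirally expressed fusions sorted by FACS into six bins by GFP to DsRed ratio, PSI derived from sequencing read proportions per bin multiplied by bin number.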

Variant | protein stability index
VPGTQVGQGGKLWDPSVFSCKEGL | 3.2
VPGTQVGQGGKLWDPSVCSCKEGL | 3.63
VPGTQVGQGGKLWDPSVISCKEGL | 4.01
VPGTQVGQGGKLWDPSVYSCKEGL | 4.01
VPGTQVGQGGKLWDPSVLSCKEGL | 3.97
VPGTQVGQGGKLWDPSVPSCKEGL | 4.38
VPGTQVGQGGKLWDPSVKSCKEGL | 4.39
VPGTQVGQGGKLWDPSVHSCKEGL | 3.89
VPGTQVGQGGKLWDPSVNSCKEGL | 3.42
VPGTQVGQGGKLWDPSVDSCKEGL | 4.54
VPGTQVGQGGKLWDPSVRSCKEGL | 3.05
VPGTQVGQGGKLWDPSVESCKEGL | 4.7
VPGTQVGQGGKLWDPSVMSCKEGL | 4.38
VPGTQVGQGGKLWDPSVWSCKEGL | 3
VPGTQVGQGGKLWDPSVTSCKEGL | 4.47
VPGTQVGQGGKLWDPSVASCKEGL | 3.46
VPGTQVGQGGKLWDPSVSSCKEGL | 3.88
VPGTQVGQGGKLWDPSVGSCKEGL | 4.92
VPGTQVGQGGKLWDPSVVSCKEGL | 3.87
VPGTQVGQGGKLWDPSVQKCKEGL | 4.25
VPGTQVGQGGKLWDPSVQHCKEGL | 4.05
VPGTQVGQGGKLWDPSVQMCKEGL | 3.69
VPGTQVGQGGKLWDPSVQGCKEGL | 4.41
VPGTQVGQGGKLWDPSVQICKEGL | 3.77

Variant | protein stability index
VPGTQVGQGGKLWDPSVQWCKEGL | 3.38
VPGTQVGQGGKLWDPSVQRCKEGL | 3.89
VPGTQVGQGGKLWDPSVQACKEGL | 4.35
VPGTQVGQGGKLWDPSVQPCKEGL | 4.33
VPGTQVGQGGKLWDPSVQVCKEGL | 4.31
VPGTQVGQGGKLWDPSVQYCKEGL | 3.76
VPGTQVGQGGKLWDPSVQCCKEGL | 3.39
VPGTQVGQGGKLWDPSVQDCKEGL | 4.88
VPGTQVGQGGKLWDPSVQECKEGL | 4.38
VPGTQVGQGGKLWDPSVQLCKEGL | 4.04
VPGTQVGQGGKLWDPSVQQCKEGL | 4.3
VPGTQVGQGGKLWDPSVQNCKEGL | 4.39
VPGTQVGQGGKLWDPSVQFCKEGL | 3.98
VPGTQVGQGGKLWDPSVQTCKEGL | 4.29
VPGTQVGQGGKLWDPSVQSCKENL | 4.34
VPGTQVGQGGKLWDPSVQSCKEAL | 3.89
VPGTQVGQGGKLWDPSVQSCKEDL | 4.36
VPGTQVGQGGKLWDPSVQSCKELL | 3.62
VPGTQVGQGGKLWDPSVQSCKEEL | 4.4
VPGTQVGQGGKLWDPSVQSCKECL | 3.59
VPGTQVGQGGKLWDPSVQSCKEIL | 3.46
VPGTQVGQGGKLWDPSVQSCKEML | 3.88
VPGTQVGQGGKLWDPSVQSCKEWL | 3.12
VPGTQVGQGGKLWDPSVQSCKEYL | 2.96

Variant | protein stability index
VPGTQVGQGGKLWDPSVQSCKETL | 3.96
VPGTQVGQGGKLWDPSVQSCKESL | 3.98
VPGTQVGQGGKLWDPSVQSCKEPL | 4.32
VPGTQVGQGGKLWDPSVQSCKEHL | 3.64
VPGTQVGQGGKLWDPSVQSCKERL | 4.34
VPGTQVGQGGKLWDPSVQSCKEKL | 4.35
VPGTQVGQGGKLWDPSVQSCKEFL | 2.69
VPGTQVGQGGKLWDPSVQSCKEVL | 4.6
VPGTQVGQGGKLWDPSVQSCKEQL | 3.51
VPGTQVGQGGKLWDPSSQSCKEGL | 4.92
VPGTQVGQGGKLWDPSMQSCKEGL | 4.06
VPGTQVGQGGKLWDPSHQSCKEGL | 4.1
VPGTQVGQGGKLWDPSPQSCKEGL | 4.24
VPGTQVGQGGKLWDPSQQSCKEGL | 3.8
VPGTQVGQGGKLWDPSNQSCKEGL | 4.07
VPGTQVGQGGKLWDPSRQSCKEGL | 4.23
VPGTQVGQGGKLWDPSIQSCKEGL | 3.89
VPGTQVGQGGKLWDPSTQSCKEGL | 3.74
VPGTQVGQGGKLWDPSYQSCKEGL | 4.1
VPGTQVGQGGKLWDPSLQSCKEGL | 4.08
VPGTQVGQGGKLWDPSKQSCKEGL | 4.33
VPGTQVGQGGKLWDPSGQSCKEGL | 3.99
VPGTQVGQGGKLWDPSVQSVKEGL | 4.36
VPGTQVGQGGKLWDPSVQSIKEGL | 3.79

Variant | protein stability index
VPGTQVGQGGKLWDPSVQSMKEGL | 4.43
VPGTQVGQGGKLWDPSVQSHKEGL | 3.6
VPGTQVGQGGKLWDPSVQSNKEGL | 4.68
VPGTQVGQGGKLWDPSVQSQKEGL | 4.6
VPGTQVGQGGKLWDPSVQSGKEGL | 4.74
VPGTQVGQGGKLWDPSVQSAKEGL | 4.15
VPGTQVGQGGKLWDPSVQSDKEGL | 4.59
VPGTQVGQGGKLWDPSVQSWKEGL | 3.08
VPGTQVGQGGKLWDPSVQSLKEGL | 4.05
VPGTQVGQGGKLWDPSVQSTKEGL | 4.25
VPGTQVGQGGKLWDPSVQSYKEGL | 3.52
VPGTQVGQGGKLWDPSVQSFKEGL | 3.1
VPGTQVGQGGKLWDPSVQSKKEGL | 4.13
VPGTQVGQGGKLWDPSVQSEKEGL | 5.02
VPGTQVGQGGKLWDPSVQSSKEGL | 4.31
VPGTQVGQGGKLWDPSVQSPKEGL | 4.33
VPGTQVGQGGKLWDPSVQSRKEGL | 4.04
VPGTQVGQGGKLWDPSVQSCNEGL | 4.16
VPGTQVGQGGKLWDPSVQSCLEGL | 3.69
VPGTQVGQGGKLWDPSVQSCYEGL | 3.4
VPGTQVGQGGKLWDPSVQSCFEGL | 3.27
VPGTQVGQGGKLWDPSVQSCREGL | 4.04
